Source: article PMC5393062

What was measured:
Experiment in all cases: fluorescence polarization
[1] = biological target: pNOB8 ParA(R52E-K221E) (Sulfolobus NOB8H2, plasmid pNOB8) (UniProt O93708); conditions: FP: 25 mM Tris-HCl pH 7.5, 100 mM NaCl, 1 nM 5'-fluorescein DNA, with ATP/AMPPNP, ADP or no nucleotide; temperature not stated. Crystals: 20% PEG 4000, 10% …
[2] = biological target: pNOB8 ParA(K270E) (Sulfolobus NOB8H2, plasmid pNOB8) (UniProt O93708); conditions: FP: 25 mM Tris-HCl pH 7.5, 100 mM NaCl, 1 nM 5'-fluorescein DNA, with ATP/AMPPNP, ADP or no nucleotide; temperature not stated. Crystals: 20% PEG 4000, 10% …
[3] = biological target: pNOB8 ParA(K58E) (Sulfolobus NOB8H2, plasmid pNOB8) (UniProt O93708); conditions: FP: 25 mM Tris-HCl pH 7.5, 100 mM NaCl, 1 nM 5'-fluorescein DNA, with ATP/AMPPNP, ADP or no nucleotide; temperature not stated. Crystals: 20% PEG 4000, 10% …
[4] = biological target: pNOB8 ParA (Sulfolobus NOB8H2, plasmid pNOB8) (UniProt O93708); conditions: FP: 25 mM Tris-HCl pH 7.5, 100 mM NaCl, 1 nM 5'-fluorescein DNA, with ATP/AMPPNP, ADP or no nucleotide, temperature not stated. Crystals: 20% PEG 4000, 10% …
[5] = biological target: pNOB8 ParA(R52E-K218E) (Sulfolobus NOB8H2, plasmid pNOB8) (UniProt O93708); conditions: FP: 25 mM Tris-HCl pH 7.5, 100 mM NaCl, 1 nM 5'-fluorescein DNA, with ATP/AMPPNP, ADP or no nucleotide; temperature not stated. Crystals: 20% PEG 4000, 10% …

## TGACGCCGGCGTCA (double strand) [14mer nsDNA, FP probe]
[1]
  Kd: 5.93 µM
[2]
  Kd: 300 nM
[3]
  Kd: 274 nM
[4]; AMPPNP, stoichiometry ~1 ParA dimer to 2 duplexes at 1 uM DNA
  Kd: 116 nM
[4]
  Kd: 120 nM
[5]
  Kd: 3.19 µM
